Paper PMC4569737, “Involvement of a eukaryotic-like ubiquitin-related modifier in the proteasome pathway of the archaeon Sulfolobus acidocaldarius” (Nature Communications, 2015)

B1: Saci0656 PAN (proteasome-activating nucleotidase) regulatory ATPase of S. acidocaldarius (enzyme, UniProt F2Z6H9 1-396, looked up)
chain: MFGDVDSYKNRENNNNYDETLVKLLEEKIEALTKEIDKLRQDLNWYKTELEKLLAPPYIEATILDILPDGKVIVRSSSGPNLVVNVATNVDVSKLKPGMSVALSQRGSTIIDILPNREDIIVKSFELIEKPNIHYSDIGGLEDQINELREVVELPLKNKKLFEELGIEPPKGVLLYGPPGTGKTMLAKAVAAESNATFIHVVASEFAQKFVGEGARIVREVFELARKKAPSIIFIDELDAIAARRIDIGTSGEREIQRTLMQLLAEIDGFKALDNVKIIAATNRIDILDPAILRPGRFDRLIEVPLPDEKGRKEIFKIYLQRMRINENDKLNYDLIAQLTDGFSGADIKNVCTEAGYMAIREGRESIKFQDIIRAIDKIKKKNLRKAINTRTEKYL
notes: ORF amplified from genomic DNA; also called PAN ATPase; PAN regulatory ATPase; source: E. coli Rosetta (DE3) pLysS, purified (details in the Supplementary Methods)
B2: Saci0613 20S proteasome α-subunit, untagged (natural protein, S. acidocaldarius, UniProt Q4JB24 1-242, looked up)
chain: MALGPAAMGYDRAITIFSPDGSLYQVDYAFEAVKRGWTTLGVKTKSGVVLLAEKRKATQLLDVDGIEKIFMLDDHVGCTFAGLASDGRILIDYARSQALQHRLIYDEPISIEYLTKVISDVKQAYTQHGGVRPFGVALIVGGIDKGKQPKLLMTEPSGQFMPYYAVAIGQGGYTATEYLEKNYKEDLDIQSTILLALRALMATLKPGEKLNYSSVEIGYADVDSGTFKKLTTEERSDLLQKI
notes: 20S proteasome α-subunit, S. acidocaldarius DSM639, Saci0613; also called Saci0613 α; 0613 α-subunit; source: E. coli Rosetta (DE3) pLysS, co-expressed with β-subunit(s); in heat-clarified lysate, and purified as part of the complex (Ni-NTA IMAC, size exclusion chromatography)
B3: Saci0662ΔN, N-terminally truncated Saci0662 β-subunit (without the pro-peptide), His-tagged (domain or fragment, S. acidocaldarius, UniProt Q4JAY3 7-195, looked up)
chain: TAIGIKTKDGVVLAAERRLSYGDFVLSKSARKVFKLGRFGIAGAGIVGDIQTLTRIMNVEIKYYEMYNSRKISARAAAKLLSVILYQNKVLPYISELLFGGVDEDGPKLFILDPIGSLIEDSYAAVGSGARVAIGVLEAEYNESLTSEAAKELAIKSMKSAVERDVMSGDGIDILIINKNNIYEDFIKI
notes: source: E. coli Rosetta (DE3) pLysS, co-expressed with Saci0613 (with or without Saci0909ΔN); in heat-clarified lysate, and purified as part of the complex (Ni-NTA IMAC, size exclusion chromatography); not shown: His tag, C-terminal, kept

Key:
[1] = molecular target: the molecule itself; test: SEC-MALS; 100 μl protein complex at 2 mg/ml, Superdex 200 10/300 Increase GL, 20 mM Tris (pH 8.0), 300 mM NaCl, 25 °C
[2] = molecular target: the molecule itself; test: negative-stain transmission electron microscopy; purified 20S complexes at 0.035 mg/ml on carbon-coated grids, 2% uranyl acetate

Row | Protein | stoichiometry N [1] | binding result [2]
1 | B1 | 6 | –
2 | B2 | – | binds
3 | B3 | – | binds
